Results on 16 sequences are retold here after the DeepSol protein solubility set.

A short description of the series: soluble on expression in E. coli; label from the status in PepcDB or PDB records.
Regarding “MASVELSADVPISPQDTWDHVSELSELGEWLVIHEGWRSELPDQLGEGVQIVGVARAMGMRNRVTWRVTKWDPPHEVAMTGSGKGGTKYGVTLTVRPTKGGSALGLRLELGGRALFGPLGSAAARAVKGDVEKSLKQFAELYGLEHHHHHH”, the “soluble on expression in E. coli” value was “not soluble”.

“MIPLKYLQAYPASLQDQVRQLIAENRLGEYLERRYPGRHDVQSDKALYAYTMNLKQEHLRNAPGLDKVLYDNKLDVVQRALGLHTAISRVQGGKLKAKKEIRVASLFKDAAPEFLRMIVVHELAHLKESEHNKAFYQLCQYMLPDYHQLEFDLRVYLTWKSLAAALEHHHHHH”: the “soluble on expression in E. coli” value is “not soluble”.

Turning to “KYRSVFDIIGPVMIGPSSSHTAGAARIGRVARSLFGREPERIIVSFYGSFAETYKGHGTDVAIIGGLLDFDTFDERIKTAIQIAEAKGIDIEFRVEDAVPVHPNTAKITISDEKGELELTGISIGGGKIEITELNGFELRLSGNHPAILVVHNDKFGTIAGVANVLAKFSINVGHMEVARKDIGQLALMTIEVDQNIDDHILDELSKLPN”, the “soluble on expression in E. coli” value is recorded as “not soluble”.

Consider “MAGVAEFNDKGELLLPKNYREWVMVGTQVTPNELNDGKAPFTEIRTVYVDPESYAHWKKTGEFRDGTVTVKELVSVGDRKGPGSGNGYFMGDYIGLEASVKDSQRFANEPGNWAFYIFYVPDTPLVAAAKNLPTAECAACHKENAKTDMVFTQFYPVLRAAKATGESGVVAPKKLAAALEHHHHHH”, for which the “soluble on expression in E. coli” value was “soluble”.

“LNSVGQGEFGGAPFKRFLRGTRIVSGGKLKRMTREKAKQVTVAGVPMPRDAEPRHLLVNGATGTGKSVLLRELAYTGLLRGDRMVIVDPNGDMLSKFGRDKDIILNPYDQRTKGWSFFNEIRNDYDWQRYALSVVPRGKTDEAEEWASYGRLLLRETAKKLALIGTPSMRELFHWTTIATFDDLRGFLEGTLAESLFAGSNEASKALTSARFVLSDKLPEHVTMPDGDFSIRSWLEDPNGGNLFITWREDMGPALRPLISAWVDVVCTSILSLPEEPKRRLWLFIDELASLEKLASLADALTKGRKAGLRVVAGLQSTSQLDDVYGVKEAQTLRASFRSLVVLGGSRTDPKTNEDMSLSLGEHEVERDRYSKNTGKHHSTGRALERVRERVVMPAEIANLPDLTAYVGFAGNRPIAKVPLEIKQFANRQPAFVEGTI”: the “soluble on expression in E. coli” value is recorded as “soluble”.

On to “MEAGGLPLELWRMILAYLHLPDLGRCSLVCRAWYELILSLDSTRWRQLCLGCTECRHPNWPNQPDVEPESWREAFKQHYLASKTWTKNALDLESSICFSLFRRRRERRTLSVGPGREFDSLGSALAMASLYDRIVLFPGVYEEQGEIILKVPVEIVGQGKLGEVALLASIDQHCSTTRLCNLVFTPAWFSPIMYKTTSGHVQFDNCNFENGHIQVHGPGTCQVKFCTFKNTHIFLHNVPLCVLENCEFVGSENNSVTVEGHPSADKNWAYKYLLGLIKSSPTFLPTEDSD”, for which the “soluble on expression in E. coli” value was “soluble”.

For “MAHHHHHHMSRLMPHYSKGKTAFLCVDLQEAFSKRIENFANCVFVANRLARLHEVVPENTKYIVTEHYPKGLGRIVPEITLPKTAHLIEKTRFSCVVPQVEELLEDVDNAVVFGIEGHACILQTVADLLDMNKRVFLPKDGLGSQKKTDFKAAIKLMSSWGPNCEITTSESILLQMTKDAMDPNFKRISKLLKEEPPIPL”, the “soluble on expression in E. coli” value is recorded as “soluble”.

As for “MLFQNVSIAGLAHVDAPHTLTSKEINGRLQPTYDRLGIKTDVLGDVAGIHARRLWDQDVQASDAATQAARKALIDAGIGIEKIGLLVNTSVSRDYLEPSTASIVSGNLGVGDHCVTFDVANACLAFINGMDIAARMLERGEIDYALVVDGETANLVYEKTLERMTSPDVTEEEFRNELAALTLGCGAAAMVMARTELVPDAPRYKGGVTRSATEWNKLCRGNLDRMVTDTRLLLIEGIKLAQKTFLAARQVLGWAVDELDQFVIHQVSRPHTAAFVKSFGIDPAKVMTIFGEHGNIGPASVPIVLSKLKELGRLKKGDRIALLGIGSGLNCSMAEVVW”, the “soluble on expression in E. coli” value is “soluble”.

As to “MAGTTTYELIDYLEGKDILVVSNGLSHIDTLIQKNIKCYVIGGNIKISTKAITGCDALMCLSKFRFDKCFIGANGVHHTYGLTTPDTEEAILKECAINNSRKAYVLADDSKFGEISTIKFSDINKCVIITNEKPKDNTYDKKTDIKVVDILEHHHHHH”, the “soluble on expression in E. coli” value is given as “not soluble”.

Take “MSSGDQKVKEMFIEQGLHVDWLVRAHTVNSIEGLVYLSEQRHKWAEADQKVIFRILQDYKNSDGELLPEHNPAAPINRKRGTLKTELETFYDVPQVRTLTCELLDMVKEEPSIWDKIRCVDFGCHQRMRQAWCSISLKLGGWGAIQHVHMLKQLYRKKRDLYNVQYLRSGREFEYCEKLSFLKDVLEMAKNDPLDKNIQLDEHLKTATPIIDFDAELLAAPAEIQQILREISEKIDKVTTSQSPGFLAEYLATCCNEVVKHRETLATAGLGDDFN”: the “soluble on expression in E. coli” value is reported as “not soluble”.

In the case of “MKPTFLEFRHLKTLLALKETGSVSLAAKRVYLTQSALSHQIKLIEEQFGLPLFERKSNPLRFTSAGERLIRLANEVMPKVIDAERDLARVKHGDAGQLRIAVECHTCFDWLMPAMDEFRQHWGLVELDIVSGFHTDPVGLLLSHRADWAIVSEIEHNDDVIFKPLFSYEMVGICSKNHSLAEKDIWEAEDFIDETWVTYPVPDDMLDLWRKVLKSKGINPTRRTTELTIAMIQLVASRRGIATIPYWAALPYLEKGYVVARKVTKEGLYSNLYAAIRKEDESLSYLEDFYQTVKSQSFSTLPGLSVLNL”, the “soluble on expression in E. coli” value is listed as “not soluble”.

For the sequence “MSLNKSVIGTKQMVVSPHYLASQAGNRILDKGGNAFDAAVAVSACLAVVYPHMTGLGGDSFWLTFHQETKAVKVYNGSGRSGKNVTRDVYKGKSAIPLRGIDSAITVPGMVDSWDAVLKEYGRLSLADVLEPARDYAQNGFPVSADQCRHTEKNIELLASTPYTADIFTRRGKAPVPGERFVQKELADSLNLIAEKGRSAFYEGDLAQRIVSHLQNNGSYMTIDDFKAHRGEWAAPVSSDYRGYSVYQAPPNSQGFTGLLTLNILENYDFTQIEHGSFEYYHVLVEALKKSFLDRDAVLTDPAFADIPLERLLDKRYAKQLAEEIGYLAIPAESRPVGSDTAYAAVIDADGNAVSFIQSLYFEFGSAVTAGDTGILLQNRGSFFSLDENHVNTLEPRKRTFHTLMPAMVCKGGKPKILYGTQGGEGQPQTQTAIITRMLDYGMHPQQAISEPRWVWGRTWGEEYEGLRVEGRFTDKTIQKLKDSGHLVEVVGDYDPLMGQAAAIKVDEEGFLQGGADPRGDGAAVGEGHHHHHH”, the “soluble on expression in E. coli” value is “not soluble”.

Consider “KRKEMISARLGDGLSYLYMASATLKKYEDEGRQQGDLNFVHYAVQYCLYNAAKSLNEAYANFPVKYVGGVLKGLLFPLGNHFDKPSDELSVSIAEAMMTPGVQRDRLTHLCYIGKSENDSVGLMENAFLAMYDVKPLERKLMKAAKDGKVARKGLLPDRLQQALDAGVLTEQEVEKITAADQLRYKAIQVDHFSHDFSEVRTDSPKKSHLNPAA”, for which the “soluble on expression in E. coli” value is reported as “not soluble”.

For the sequence “MSKNLTITHESTFNGNKVYIDKEGLVVEYLEGIESVLENALEQYARLFIVRVDLNLPTDFRGDDSAVMTRFFRSLKSQVAAYRRRSARLNRKPYRETTIRYVWAKECDTSTSSHYHVALIFDRNIFRSLGDFGEYQQSLANRIRNAWKRSVEAMYSGKEKPAIHFSKQGQYHLLRNSEEFGEVFQSVFYRLSYLAKRRTKHFGKRMNNFGHSHK”, the “soluble on expression in E. coli” value was “not soluble”.

With “EYVYIMTPYLILDSELEHAIQFAAERGVDVRIIMPGIPDKPIPYALAKTYYQALTKSGVKIYEYTLGFVHSKIFLSDNTKAVVGTINLDYRSLYHHFECAVYLYKVDAIQDIYRDYMDTLNKSRLVSLKDINNI”, the “soluble on expression in E. coli” value is recorded as “not soluble”.

Consider “MRRCCGDLAASRGGCEPASRNLTRTRLTFAALGRINRPAEHDREDAMTRQEARDHEPRDQDAALSRRTLVRGLALGAAATMAGPALAQTGPAAPPTTITTPPRDFGPNGAPTTYFWDPDIIAVDPSFDDLAQPNTAIKRLYTGVLWAEGPAWSAQGRYLLWSDIPNNRQMRWSEDDGRISVFRSPSNNSNGNSFDFQGRQLSCEHLTRRVTRYEHDGTATVLCDNYNGKKLNSPNDVVAHPDGSYWFTDPPYGGQLYEGEPDAAGGPSNSGGKLNPRIGQPAGFTPGKRELPTNCYRIDPSGRVDLVVTEEQVPDPNGLCFSPDFKKLYVVSTGKGPGDSGPGGKGEIFVFDVGADNKLSNQKRFSDCTIDGVKCGPDGVRCDVNGNVWASSNAGRAVGYSGVTVWSPEGKLLGRIRLPEVCGNICFGGPKRNRLFMAASQSLYAVFTATQGAGPGLEHHHHHH”, for which the “soluble on expression in E. coli” value is reported as “soluble”.
